Data on 20 sequences can be found in the DeepSol protein solubility set.

The data set can be described thus: soluble on expression in E. coli; label from the status in PepcDB or PDB records.
For the sequence “MGSDKIHHHHHHVSATDTLDKTGTQTSAVRLGDLETPCLVLDADRMDRNIARLRDRIAGLGVTLRPHLKTAKSVEVARRVMATSEGPATVSTLKEAEFFADAGVRDIIYAVGIAPWKLAKVIELRKRGVDLAVVLDTVELAQAVAAASRESGMAIPALIEIDCDGHRSGVLPRDSERLLAIGKALVEGGELRGVLTHAGGSYAARGEEALRNAAEEERASVVNAAAILRDAGLPCPVVSVGSTPTAHHATDLTGVTEVRAGVFVFFDLVMTGIGICTVDDIAISVLATVIGHQREKGWILVDAGWMAMSQDRGTAKQVVNQGYGVVCKCDGTPYADLILADANQEHGIIMVRPGSDGTLPDLAIGDRVRILPNHACATGAQHRRYNVVHGTSDVVTGEWQRFGGW”, the “soluble on expression in E. coli” value is “not soluble”.
For “MGSDKIHHHHHHVSDLEWVLAIPHEQAFKRMEEPWGGAKTSYLTGIKETLEANYGPIHFTRLYFGEEFCERALSTGKALEEAVAAAEERGWGFTYVTPYLTETGLTKVRLLLDILAQTKPEAEVVINDWGVLDWVTEHHPTFTPVLGRLMNKIIRDPRMPDSLRNSPDQTVMHKFRTCNLAGGEMKDLLDQYQVKRIELDYPPQGLDPNLPAWGYDISLSIPYGVIMTGRICLMQSWGLAAGEKFRTTGPCPRRCRLGWLELSDPSGRVKKDQDWQIMQKGNTVFYRQSKEFLAEILTEAEKTGVSRMIFQPEPI” the value was “not soluble”; for “MGSDKIHHHHHHVSKIGIPRTLAYFIYFPLWKTFFEELGHEVVLSPATSKAILDRGVKEAVNDACIPIKLYHGHAAALAGKVDYIFCPRLVSVRSHGDFGTETFCPKFLGLPDMLRLAMDDLPEIIDVRVDLKQGKDGLWQLSQEIGKGLGNSREEIKRAFNRAREQQRQYNRLLYQEMLPLEALKIIEQKNPIPKKEKSNENYDLQVAVVGYPYLLYDAYINAGLLAILEKEKVKVYTQDIISDRKMNQQAKTLPKSTFWYFSNRVIYGALHFMQRPEIEGVIHLTAFACGPDSMVDRLLEIESRRRGNRPYLSIAVDEHTGEAGVRTRIEAFVDMLRYRRERK”, “not soluble”.
For “MGSDKIHHHHHHVTEPLKFQWCDRLGDLPREDWNAIAQPLATPFLEWDWLHDLEASGSVIAKAGWQPCHLVVWRGDRLVAAAPLYLKGHSYGEFVFDQQWADLAGRLGLRYYPKLLGMTPLTPAVGYRFLIAPAEDEATLTGLMLREIDRFCDNNQILSCNFLYVDPDWQPLVEAAGYSAWQHHNSVWQNRGFRTFDDYLGMFNANQRRNIKREVKSMERAGLTLTCLSGDQIPRDYFPLMYRFYSDHCDKFGWWGSKYLTRDFFDRAMHHSRHRLLFVAATPEGSDRPIAMSFCVHKGDRLYGRYWGCDHEIDNLHFNVCYYKPIEWAIANGIQSFDPGAGGSHKKRRGFPATPNWSLHRWYQPRFGQILGTWLRQVNELESQEIEAINAELPFSRPEVPLN” the value was “not soluble”; for “MGSDKIHHHHHHVTITNPLPIDRNGEMVEISMAEITGKLQLPDTAQVIVLDENGLEVPYQITYDDMLIFPASVKGDASAVYTIAEGTPQPVDVVACGRQYPERLDDVAWENDRAAYRAYGPALQEKGERAFGYDIWTKSVSEPVVEDRYDGDLNRGISYHVDHGNGMDCYAVGPTLGGGTAALFPDSTIVYPYCYKDCEILDNGPLRFTAKLVYNPLVVKGDSSVIETRIISLDKGSQLNKTVVSFDNLQEITPVVTGIVLHKQNPMGYSFDADAGYIAYADSTENAANNNGVIYIGAVFPATVKGAFAQVFSEKERKERGDALGHVLAVNDYEPGAEYIYYWGSGWSKYGFEADTDWNKYLEEYARKIRNPLAVAIK”, “not soluble”.
As to “MGSDKIHHHHHHVTNKRPIAFDATPDTLRRSLVLSAAAASGLGLLPGAMRDARAQSFPPLGNFPAGTEGNSVFVGVSVPLTGAFSAEGKDQQLGFELAFEHLNSGKLAGKIPELKGKGVLGKTITFGVVDTEAKAESAIQGQTRFLRNNKAILMTGCYSSAVTVALGKLAQREKVLYMAGPAGSDDVTGKDCQRYSFRSQPSTTMASRALAPVLAERLGKGKKVAYLVPDYTFGHTQFESMARLTEPMGWKTVSKQVCPIGTADFSTYLLNIANSGADVFVNCTVGNDCSVSIKQAKNFGVMKNAALVVPTLQPFLAQQLGPEVTQDILGVMDFWWSLAESNELAKQFVDDFQAKHNYKPYWPAHIAYSQMLIWAVAVERAKTFYPPEVIKALEARVPIRTTLGDVMYRPEDHQLVRPVPVMRGKKPSEMKSKDDYYEVIKMIPGADAVTPLDQGTCKMGELT”, the “soluble on expression in E. coli” value is recorded as “not soluble”.
On to “MGSDKIHHHHHHVTSLISVKRLNKSFPGVRALHEVQFELMAGEVHALMGENGAGKSTLMKILAGVYTRDSGEILYDGQPVEFLSPRDAQAVGVGIIHQELQLMNHLTVAQNIFIGREPRGRLGLLLDEDRLNAQAAAILARMHVSLDPRAVVGALTVARQQMVEIAKALSFDSRVLIMDEPTSALNDAEIAELFRIIRELKSRGVGIVYISHKMDELKQIADRVTVMRDGEYVATVAARDTSVEAIIGMMVGRTLTDIAPSHSVADQGEIALEVRNLNAGPLVRDVSFALRKGEILGFAGLMGAGRTEVARAVFGADPVESGEIVVNGARATIRTPSDAVAHGIGYLSEDRKRFGLATGMDVESNIVMSNLRKFLSLNFFLRRAQIRRTASHFISLLGIRTPSATQAVRLLSGGNQQKIVIAKWLERDCDVLFFDEPTRGIDVGAKNEIYKLLRSLAGEGKAVVMISSELPEILRMSDRVIVMCEGRITGELSAAEATQERIMHLATRRETLKTAA”, for which the “soluble on expression in E. coli” value is “not soluble”.
For “MGSDKIHHHHHHVVVMSKVLLNIGCADVDKPGYINVDARKTKVTHLVSNAWDLDCFEENSVHEIYSRHMLEHLNPEYAKLALQKWFYILEPEGKLVVIVPDIEFHARQLLGVSRSSFGDQMEHAFAGFWGWREKERGGSDFDAHQWGYTVATLENEIGAVGFERIERVVEGVDSEPWHLQMTARKPMTSLCCPMDFRGPFP” the value was “not soluble”; for “MGSDKIHHHHHHVWNDRVELSGKCEYALLALIELARGHSNGEPQQIKQLADRQNIPDRYLEQLLATLRRGGIVRSVRGARGGYLLAREPWQISMQDVVHCIDGTEMQRTEAIDQQSVTIERQILVDINVELCKAVEDVLAAYSLQDLLEIRENRASTDLMYYI”, “not soluble”; for “MGSDKIHHHHHHVYQDLSRFSMPADFRGKPGWYVQLWWVVQALLFHPSPQIMYGWRRLLLRAFGAQIGKGVIIRPSAQITYPWKLAIGDYAWIGDEVVLYTLGNITIGKNAVVSQRSYICTGSHDFKKEAFDIFSKPIIIDDECWLATDVFVGPGVKISKGIVIGARSSVYKNIEATPGIYTGNPATRVGDR”, “not soluble”.
For “MGSDKIHHHHHHYQQQYKMAVHVTPESENDPEWPSKKKWFDASEWLSTPQYIKINDFYVINTRYVPIGDLNSDQIIFYLKKGINGSEKRFSELSVLSDLDNQEFRELMKDKLSSEYLETQFEKETLTPTIDFFLIYFIYNNKRYEVPIRREYSGNKYHYWVLEGSVKKAGYWHERFPTSYSYRKYLNK” the value was “not soluble”.
With “MGSKISIINHINTIRYYLKKNEVEDKVEDPAGAAEPESTEAFGTFISPSTGMEFIMAPAGEFLMGSSPEEKGRSYSESPVHRVTIKNPFYIGKYQVTQKQWKTIMGTSPSNFNEDFRPVELVSWEDVQEFIGKLNAMENTTKYRLPSEAEWEYACRAGKQSRYFFGEDESKLGDYAWYARNAGRKTHPAGRKKPNRWGLYDMCGNVWEWVQDSWHEDYNGAPSDGSAWEDGNSSNRVSRGGSWYCSTNSCRSASRFSREPEKHLANLGFRLVKELLEHHHHHH” the entry was “not soluble”.
“MGSLLSTPEGSNPIGKAIGFLSQRKRPAVELQDDFEPEVKVQRTCEVQDEEAEEENIEFEHEIDEEEIEEQDEIVHEQSENDQNLKDSDEKKNEIVALEKSTEKDEELPIPEKEAQVDQEDTLENLFEKETESNNTNEQQENVETNDTTSNFDLNEAEERVDVFSNGLLTSIQSTQPEIIA”: the “soluble on expression in E. coli” value is “soluble”.
With “MGSLRLLADIQGEDLESLYGYAKQLFDGGEIAAARNVYQLLSTLDHWNFDYLLALGLCHQRLGAHNEAVVCFGRAGLIKVDDPRAAFYAGISYRLDGNAEYASKAFKAAINWCGEQIDYQAIKASAVDMLALQQEEVPLEHHHHHH” the entry was “not soluble”.
For “MGSMAHSDGIFKKEQAMCLEKIQRANELMGFNDSSPGCPGMWDNITCWKPAHVGEMVLVSCPELFRIFNPDQDMGVVSRNCTEDGWSEPFPHYFDACGFDEYESET” the value was “soluble”; for “MGSMSMNAEQTVAELIARSNRLGSDPKNTNYAGGNTSAKGTDTDPVTGQPVELLWVKGSGGDLGTLTENGLAVLRLDRMRALVDVYPGVEREDEMVAAFDYCLHGRGGAAPSIDTAMHGLVDAAHVDHLHPDSGIALATAADGEALTKQIFGDRVVWVPWRRPGFQLGLDIADIKRRNPQAIGTILGGHGITAWGSTSAEAEAHSLEIIETAERYIAENGRPEPFLEHHHHHH”, “not soluble”.
With “MGSRASTLLRDEELEEIKKETGFSHSQITRLYSRFTSLDKGENGTLSREDFQRIPELAINPLGDRIINAFFSEGEDQVNFRGFMRTLAHFRPIEDNEKSKDVNGPEPLNSRSNKLHFAFRLYDLDKDDKISRDELLQVLRMMVGVNISDEQLGSIADRTIQEADQDGDSAISFTEFVKVLEKVDVEQKMSIRFLHKLAAALEHHHHHH” the entry was “soluble”; with “MGSSHHHHHHGGTGENLYFQGGSGAFRGSSARLAATPGVGIAPETTPVKYVPEMLNIQNAKWWNGRGKPVYRSTYNEKSWLEKARWGAFTKGSRPVMRQRYSAAALKEALEMVPEGFETCDVPRPPQRIRAQSEGVVGRWYTNYWTLHSVRYQCQLAGVEWQFGERQRPRTNYDEPHMYTDFEETKAIRDYRSRWINVNRSLVGMSRRMKESEEEARYLHFKKVQDTFWSNRKVLVNRIKSMHNQGTLQSAKDLPIKTINIKAFLAE”, “not soluble”; with “MGSSHHHHHHGGTGENLYFQGGSGAGIDYSKWDKLCDSGTSSGTEYEGDRDDKGHDDSSRAPQVTRLEYPSRVTLGPNGVQLEQVPPKASASPFPGTCAPPEETDNGSVAVARCPIKEESFHAEYDTGASNASSHATGNTAGRRDDDQERMGATDDDEDLLYESLARNGGREGSHHWWTQTEDTVTVSFLVPWETKGKSVTEFRLYEARSTTALESELLQAHLEITILVRPACLTSPSSGPSASAAPLRIHQVFRYPVKLSEDLIDGCWQLHFMPRRHLRLLVVQLFKEPVGLGMTLWWDRCFVTDTTSVIADTQTIPDRKRRMEATPGSKEKAGQFRKVWADAHEEFRRRAQERKRKIIE”, “not soluble”.
Turning to “MGSSHHHHHHGKTIFVIVPTNEEQVAFLEALAKQDELNFDWQNPPTEPGQPVVILIPSDMVEWFLEMLKAKGIPFTVYVEEGGSENLYFQGGGGGGRSSRHLCGLPTVRTVAATGWRYHRHGAPEKVLQYERYRVPFDRTSGQVVVKMLAAPVHRHDKNLIEGHGGPIAVPKACLPHVAGVEGVGVVEEVGSNAKLALKEGDMVWINNPSVGSWATHIVTDAENLDVVPCRADVDIEYLASLSLFHTAYHLTHDFVNIQPNDVVLQTGASSSIAQICQGYLRAKGAKLFQTMQLGRTEHAHLLAFFKLRGAFAVVPYNYARTNYMRRLLSDVPPPKLLLNHTCGGYASNLVNLLGDNGVCVTYGNTSHQPMQISNMDAIARGVQFKGFFLPSWIRRHTREARMRVHQNVVESMTITQGHGIFRAQRFKMDGDSAFAFSNAWDAPLASRKAVLRIVGEYGEWRRPRSDQAGWNIGRAVWEDMLQQMWESAGTTENPQSMKYYTPFDDIHSSFYDAKQSKELGHRDVFFRRPNAPRHNAAEQQQ”, the “soluble on expression in E. coli” value is reported as “not soluble”.
